Assay results reported in patent US20200140557A1 (published 2020).

T1: human FGFR1b extracellular domain
T1 chain: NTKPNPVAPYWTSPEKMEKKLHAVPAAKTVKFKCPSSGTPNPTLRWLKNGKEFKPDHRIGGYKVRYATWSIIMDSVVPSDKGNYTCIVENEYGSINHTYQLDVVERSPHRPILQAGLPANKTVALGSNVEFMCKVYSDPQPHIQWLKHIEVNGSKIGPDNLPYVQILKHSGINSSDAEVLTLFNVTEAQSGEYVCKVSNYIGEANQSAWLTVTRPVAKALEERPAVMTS


Target: T1, human FGFR1b extracellular domain
Assay: SPR

Binder	Kd
R1MAb1 (antibody) chain 1: EVQLVESGGGLVQPGGSLRLSCAASGFTFTSTWISWVPGKGLEWVGEIDPYDGDTYYADSVKGRFTISADTSKNLQMNSLRAEDTAVYYCASSGYGGSDYAMDYWGQ chain 2: DIQMTQSPSSLSASVGDRVTITCRASQDVSTAVAWYQQKPGKAPKLLIYSASFLYSGVPSRFSGSGSGTDFTLTISSLQPEDFATYYCQQSYTTPPTFGQGTKVEIKR	0.59 nM
R1MAb2 (antibody) chain 1: EVQLVESGGGLVQPGGSLRLSCAASGFTFSNNYIHWVPGKGLEWVADIYPNDGDTDYADSVKGRFTISADTSKNLQMNSLRAEDTAVYYCAREHFDAWVHYYVMDYWGQ chain 2: DIQMTQSPSSLSASVGDRVTITCRASQDVSTAVAWYQQKPGKAPKLLIYSASFLYSGVPSRFSGSGSGTDFTLTISSLQPEDFATYYCQQSYTTPPTFGQGTKVEIKR	0.44 nM
